Measured values as given in PMC5131778 (Genes & Development, 2016).
Each block holds one molecule with its values, some of them ahead of it.

Assays:
WD40 domain of Gemin5 = biological target: T1, WD40 domain of Gemin5 (Homo sapiens, UniProt Q8TEQ6); test: isothermal titration calorimetry; assay type: binding
T1 sequence (Q8TEQ6 1-739): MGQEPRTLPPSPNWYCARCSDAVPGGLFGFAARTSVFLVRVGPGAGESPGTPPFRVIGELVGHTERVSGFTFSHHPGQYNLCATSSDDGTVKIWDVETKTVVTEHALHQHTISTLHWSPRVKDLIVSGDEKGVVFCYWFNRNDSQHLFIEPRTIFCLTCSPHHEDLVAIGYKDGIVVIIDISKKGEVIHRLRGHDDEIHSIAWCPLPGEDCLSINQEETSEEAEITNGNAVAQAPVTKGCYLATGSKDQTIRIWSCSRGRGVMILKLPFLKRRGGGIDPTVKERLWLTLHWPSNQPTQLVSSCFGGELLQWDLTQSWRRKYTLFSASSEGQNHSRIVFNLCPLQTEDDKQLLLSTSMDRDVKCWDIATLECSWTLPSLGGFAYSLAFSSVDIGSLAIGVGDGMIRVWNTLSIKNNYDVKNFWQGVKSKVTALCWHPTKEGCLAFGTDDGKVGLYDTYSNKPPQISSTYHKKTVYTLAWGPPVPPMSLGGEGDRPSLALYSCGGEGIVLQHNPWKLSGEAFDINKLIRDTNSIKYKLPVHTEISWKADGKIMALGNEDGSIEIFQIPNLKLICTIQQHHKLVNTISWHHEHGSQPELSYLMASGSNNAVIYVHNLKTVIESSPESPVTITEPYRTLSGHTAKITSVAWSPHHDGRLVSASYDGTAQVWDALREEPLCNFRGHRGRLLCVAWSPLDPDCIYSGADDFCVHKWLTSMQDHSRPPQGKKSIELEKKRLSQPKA

Gemin5 WD40 E197A = Gemin5 WD40 E197A (Homo sapiens, UniProt Q8TEQ6 1-739, E197A); test: ITC
Sequence of Gemin5 WD40 E197A (Q8TEQ6 1-739 E197A): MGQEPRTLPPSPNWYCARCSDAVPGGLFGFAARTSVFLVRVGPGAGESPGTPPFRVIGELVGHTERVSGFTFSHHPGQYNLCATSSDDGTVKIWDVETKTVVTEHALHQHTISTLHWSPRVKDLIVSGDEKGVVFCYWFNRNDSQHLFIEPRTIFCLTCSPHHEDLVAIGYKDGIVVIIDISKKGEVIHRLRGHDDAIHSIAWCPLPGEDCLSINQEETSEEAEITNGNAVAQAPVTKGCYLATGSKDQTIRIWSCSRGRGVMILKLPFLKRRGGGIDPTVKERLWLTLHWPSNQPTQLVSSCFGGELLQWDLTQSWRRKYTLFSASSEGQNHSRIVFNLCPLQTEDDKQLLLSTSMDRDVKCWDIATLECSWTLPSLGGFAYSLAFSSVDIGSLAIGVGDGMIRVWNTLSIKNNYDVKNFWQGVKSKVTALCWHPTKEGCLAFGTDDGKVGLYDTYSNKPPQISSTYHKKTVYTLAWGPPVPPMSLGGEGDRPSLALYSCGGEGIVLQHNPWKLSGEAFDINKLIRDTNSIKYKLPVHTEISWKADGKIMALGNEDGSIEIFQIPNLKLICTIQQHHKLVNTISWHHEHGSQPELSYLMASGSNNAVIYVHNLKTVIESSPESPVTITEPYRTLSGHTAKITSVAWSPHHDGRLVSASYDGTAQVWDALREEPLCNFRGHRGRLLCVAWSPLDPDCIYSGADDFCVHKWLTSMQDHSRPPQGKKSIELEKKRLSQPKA

Gemin5 WD40 Y474A = Gemin5 WD40 Y474A (Homo sapiens, UniProt Q8TEQ6 1-739, Y474A); test: ITC
Gemin5 WD40 domain [1] = biological target: T2, Gemin5 WD40 domain (Homo sapiens, UniProt Q8TEQ6 1-739); test: ITC
Gemin5 WD40 domain [2] = biological target: T2, Gemin5 WD40 domain; test: crystal structure

Kd (WD40 domain of Gemin5): 4 µM
Molecule: C[n+]1cn([C@@H]2O[C@H](COP(=O)(O)OP(=O)(O)OP(=O)(O)OC[C@H]3O[C@@H](n4cnc5c(=O)[nH]c(N)nc54)[C@H](O)[C@@H]3O)[C@@H](O)[C@H]2O)c2nc(N)[nH]c(=O)c21 [m^7GpppG]

Molecule: AAUUUUUG (ssRNA) [pre-U4 (118-125) Sm site]
Kd (Gemin5 WD40 E197A): 40 ± 5 µM
binding result (Gemin5 WD40 Y474A): binds

Molecule: AACUUUUG (ssRNA) [pre-U4 (118-125) U120C]
binding result (Gemin5 WD40 domain [1]): no binding

Molecule: AAUUCUUG (ssRNA) [pre-U4 (118-125) U122C]
binding result (Gemin5 WD40 domain [1]): no binding

Molecule: AAUCUUUG (ssRNA) [pre-U4 (118-125) U121C]
Kd (Gemin5 WD40 domain [1]): 11 ± 2 µM

Molecule: AAUUGUUG (ssRNA) [pre-U4 (118-125) U122G]
binding result (Gemin5 WD40 domain [1]): no binding

Molecule: AAUUUUUGAG (ssRNA) [pre-U4 (118-127) crystal RNA]
binding result (Gemin5 WD40 domain [2]): binds
